Experimental data reported in IntAct's records for PubMed 24290141.

B1: Autophagy-related protein 13 (Homo sapiens), O75143 (parent)
chain: METDLNSQDRKDLDKFIKFFALKTVQVIVQARLGEKICTRSSSSPTGSDWFNLAIKDIPEVTHEAKKALAGQLPAVGRSMCVEISLKTSEGDSMELEIWCLEMNEKCDKEIKVSYTVYNRLSLLLKSLLAITRVTPAYRLSRKQGHEYVILYRIYFGEVQLSGLGEGFQTVRVGTVGTPVGTITLSCAYRINLAFMSTRQFERTPPIMGIIIDHFVDRPYPSSSPMHPCNYRTAGEDTGVIYPSVEDSQEVCTTSFSTSPPSQLSSSRLSYQPAALGVGSADLAYPVVFAAGLNATHPHQLMVPGKEGGVPLAPNQPVHGTQADQERLATCTPSDRTHCAATPSSSEDTETVSNSSEGRASPHDVLETIFVRKVGAFVNKPINQVTLTSLDIPFAMFAPKNLELEDTDPMVNPPDSPETESPLQGSLHSDGSSGGSSGNTHDDFVMIDFKPAFSKDDILPMDLGTFYREFQNPPQLSSLSIDIGAQSMAEDLDSLPEKLAVHEKNVREFDAFVETLQ

Variants of: B1
Settings: with MAP1LC3A

Variant | effect of a mutation on the interaction
M446A | decreasing interaction strength
D442A | decreasing interaction strength
F444A | decreasing interaction strength
V445A | decreasing interaction strength
D443A | decreasing interaction strength
I447A | decreasing interaction strength
